{"source": "paper PMC5043356", "about": "“A general solution for opening double-stranded DNA for isothermal amplification”", "target": "RecA (Escherichia coli BJ5183, UniProt P0A7G6 1-353)", "sequence (P0A7G6 whole entry)": "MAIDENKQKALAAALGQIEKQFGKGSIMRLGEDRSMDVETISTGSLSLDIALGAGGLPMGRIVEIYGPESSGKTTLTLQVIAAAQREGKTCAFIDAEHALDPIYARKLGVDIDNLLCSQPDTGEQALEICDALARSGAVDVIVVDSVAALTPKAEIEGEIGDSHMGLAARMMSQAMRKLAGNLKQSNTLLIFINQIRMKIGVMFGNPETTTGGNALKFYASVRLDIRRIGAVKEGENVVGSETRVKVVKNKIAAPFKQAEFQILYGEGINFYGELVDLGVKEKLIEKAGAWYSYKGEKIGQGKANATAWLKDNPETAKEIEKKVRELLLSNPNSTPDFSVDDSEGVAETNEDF", "experiment": "EMSA; no nucleotide cofactor; 1 mM Mg2+ (10 mM in Fig. S1B); about 5 nt per RecA; 25 mM Tris pH 7.6, 1 mM MgCl2 (10 mM in supplementary assays), 1 mM DTT, 37 C, 10 min, 12 pmol X1 in 10 ul; 2% native agarose gel", "details": "protein: recombinant; tags: His tag (pET28a, Ni purification); single strand"}
{"binder": "X1 (54 nt) (ssDNA) DNA: TACGTTAACAAAAAGTCAGATATGGACCTTGCTGCTAAAGGTCTAGGAGCTAAA", "values": [{"measurement": "binding result", "result": "binds"}]}
